Experimental data from patent US20230041071A1 (NATIONAL INSTITUTE OF BIOLOGICAL SCIENCES BEIJING, published 2023).
Where no end group is shown, it is not given here.

T1: hAREG-98aa (human, UniProt P15514 101-198)
T1 construct: Bought protein
T1 sequence (looked up): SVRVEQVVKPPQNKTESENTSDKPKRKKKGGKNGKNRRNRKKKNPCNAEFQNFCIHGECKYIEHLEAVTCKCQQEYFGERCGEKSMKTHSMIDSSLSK

T2: hAREG-EGFd-mFc (human; mouse, UniProt P15514 142-184)
T2 construct: Expressed in 293F cells; not shown: Fc fragment of mouse IgG2a
T2 chain: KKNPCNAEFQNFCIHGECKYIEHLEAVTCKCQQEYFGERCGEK

T3: mAREG-EGFd-mFc (mouse, UniProt P31955 135-177)
T3 construct: also called EGF domain of mAREG (aa135-177) fused with mFc tag; not shown: mFc tag (Fc fragment of mouse IgG2a as for hAREG-EGFd-mFc)
T3 chain: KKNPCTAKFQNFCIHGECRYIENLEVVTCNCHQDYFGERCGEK

T4: hAREG-H164N variant (human, UniProt P15514 142-184)
T4 construct: also called H164N variant of hAREG-EGFd
T4 chain: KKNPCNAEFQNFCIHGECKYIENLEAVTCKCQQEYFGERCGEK

T5: hAREG-E149K variant (human, UniProt P15514 142-184)
T5 construct: also called E149K variant of hAREG-EGFd
T5 chain: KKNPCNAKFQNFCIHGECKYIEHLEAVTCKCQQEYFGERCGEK

T6: mAREG-N164H variant (mouse, UniProt P31955 135-177, limits assumed)
T6 construct: Position is in hAREG numbering
T6 chain: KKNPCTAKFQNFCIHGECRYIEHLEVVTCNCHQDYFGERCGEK

T7: biotinylated mAREG-EGFd (expressed in E. coli) (mouse, UniProt P31955 135-177, limits assumed, biotinylated)
T7 construct: domain: EGFd; E. coli-expressed biotinylated form used for the library selection; not the mFc fusion m33
T7 chain (looked up): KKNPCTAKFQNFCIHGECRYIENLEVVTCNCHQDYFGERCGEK

T8: C18 peptide (human, cysteine pairing not given here; also: biotinylated, position not given here)
T8 construct: Synthetic (Scilight-peptide); also called hAREG-C18; C-terminal peptide
T8 peptide: GSSGKCQQEYFGERCGEK

T9: hAREG: human AREG comprising residues 101-184 of the human pro-AREG with an N-terminal AVI tag (human, biotinylated using BirA enzyme (Avi tag))
T9 construct: Expressed in E. coli with His6-TRX-3C site-Avi tags and cleaved by HRV 3C protease; also called biotinylated hAREG
T9 chain: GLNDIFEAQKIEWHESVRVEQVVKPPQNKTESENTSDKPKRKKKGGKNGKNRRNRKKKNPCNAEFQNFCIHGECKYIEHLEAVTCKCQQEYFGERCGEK

T10: mAREG: mouse AREG comprising residues 94-177 of the mouse pro-AREG with an N-terminal AVI tag (mouse, biotinylated using BirA enzyme (Avi tag))
T10 construct: Expressed in E. coli, cleaved by HRV 3C protease, biotinylated; also called biotinylated mAREG
T10 chain: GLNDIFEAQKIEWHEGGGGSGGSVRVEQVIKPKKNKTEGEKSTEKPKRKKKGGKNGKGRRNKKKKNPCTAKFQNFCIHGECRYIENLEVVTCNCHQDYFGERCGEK


Tests used:
hAREG-98aa = biological target: T1, hAREG-98aa; assay: SPR, Biacore T200; mAb captured on anti-human Fc chip, antigen in solution
Procedure: (§1) To evaluate affinities of different mouse hybridoma mAbs or their humanized and engineered variants, SPR measurement was performed using Biacore T200 instrument. mAbs were captured on anti-human Fc CM5 biosensor chip surface, hAREG-EGFd-mFc, mAREG-EGFd-mFc or hAREG-98aa (purchased from PeproTech, cat #100-55B) in serial dilutions were injected over antibody-bound surface, followed by a dissociation phase. Association rates (Ka) and dissociation rates (Kd) were calculated using the one-to-one Langmuir binding model (BIA Evaluation Software, GE Life Sciences). The equilibrium dissociation constant (KD) was calculated as the ratio kd/ka.

hAREG-EGFd-mFc = biological target: T2, hAREG-EGFd-mFc; assay: as above
Procedure: as §1

mAREG-EGFd-mFc = biological target: T3, mAREG-EGFd-mFc; assay: SPR (Biacore T200)
hAREG-H164N variant = biological target: T4, hAREG-H164N variant; assay: SPR (Biacore T200)
hAREG-E149K variant = biological target: T5, hAREG-E149K variant; assay: SPR (Biacore T200)
mAREG-N164H variant = biological target: T6, mAREG-N164H variant; assay: SPR (Biacore T200)
[1] = biological target: T7, biotinylated mAREG-EGFd (expressed in …); assay: phage antibody library selection and ELISA screening
Procedure: (§2) Phage particles expressing scFv on their surface (phage-ScFv) were prepared from the library and used for selection of scFvs against the target antigens including the biotinylated AREG proteins and peptides. The antigens were captured on streptavidin-conjugated magnetic M-280 Dynabeads® (Life Technologies) and then incubated with 5×10¹² phage particles prepared from the library, respectively. For each soluble AREG protein or peptide (antigen, Ab), two rounds of selection were performed. For obtaining cross-reactive human mAbs recognizing both hAREG and mAREG, the hAREG and mAREG were used respectively in the 1st and 2nd rounds of selection. […] Some of the phage-Abs were subsequently converted into human IgG1 (hIgG1) or mouse IgG2a format and analyzed for binding to both hAREG and mAREG using enzyme-linked immunosorbent assay (ELISA) or Biacore.
(§3) About […] of AREG protein or peptide at 100 μL per well were then captured onto the plates by incubation at 30° C. for 1 hour. […] Specific bound phage-scFvs were detected by adding HRP-conjugated mouse anti-M13 antibody (GE Healthcare) and incubated for 30 mins at 30° C. […] The absorbance at 450 nm with the correction wavelength set at 630 nm was read by a microplate reader (Bio-Rad). […]

C18 peptide = biological target: T8, C18 peptide; assay: phage antibody library selection on the C18 peptide and ELISA screening
Procedure: as §2, §3

[2] = biological target: T9, hAREG: human AREG comprising residues …; assay: ELISA screening after phage library selection
[3] = biological target: T10, mAREG: mouse AREG comprising residues …; assay: ELISA screening after phage library selection

| Binder | Kd (hAREG-98aa) [nM] | koff (hAREG-98aa) [s⁻¹] | kon (hAREG-98aa) [M⁻¹ s⁻¹] | Kd (hAREG-EGFd-mFc) [nM] | koff (hAREG-EGFd-mFc) [s⁻¹] | kon (hAREG-EGFd-mFc) [M⁻¹ s⁻¹] | binding result (mAREG-EGFd-mFc) | binding result (hAREG-H164N variant) | binding result (hAREG-E149K variant) | binding result (mAREG-N164H variant) | binding result [1] | binding result (C18 peptide) | binding result [2] | binding result [3] |
| --- | --- | --- | --- | --- | --- | --- | --- | --- | --- | --- | --- | --- | --- | --- |
| hu9C12v6 (antibody, V domains shown, Humanized 9C12 variant) VH: EVQLVESGGGLVKPGGSLRLSCAASGFTFSSYPMSWVRQAPEKGLEWVSTISTGGTYTYYPDSVKGRFTISRDNAKNSLYLQMNSLRAEDTAVYYCARQGPIYYGNYYYGMDVWGQGTTVTVSS VL: DVVMTQSPLSLPVTLGDPASISCRSSQSLVNQEGETYLHWYQQRPGQSPKLLIYKVSNRFDGVPDRFSGSGSGTDFTLKISRVEAEDVGVYYCSQSTHVPYTFGQGTKLEIK | 0.188 | 0.00457 | 2.43e+07 | 0.398 | 0.000389 | 978000 | no binding | no binding | binds | binds | – | – | – | – |
| E1L2 (antibody, V domains shown, Human mAb from a phage scFv library; Phage-Abs were converted into human IgG1 or mouse IgG2a format) VH: not shown VL: QAGLTQPPSVSKGLRQTATLTCTGNSNNVGDQGAVWLQQHQGHPPRLLSYRNNNRPSGISERFSASRSGNTASLTITGLQPEDEADYYCSTWDSGLNSVVFGGGTQLTVL | – | – | – | – | – | – | – | – | – | – | binds | binds | binds | binds |
